Test results published in US20200197469A1.

Assays:
[1] = target: purified HIV-1 gp120 (HIV-1); assay: SPR (Biacore); gp120 immobilized on the chip, MOMO30 flowed at 6.25 nM to 200 nM; triplicate on separate days
[2] = target: purified HIV-1 gp120 (HIV-1); assay: cell-based or functional assay

Which Kd [1] does the source give for MOMO30 protein from Momordica balsamina here?
The Kd was 5800 nM.

What about the IC50 in MAGI infectivity assay, HIV-1 lab strain NL4-3 [2] of the same substance?
The IC50 in MAGI infectivity assay, HIV-1 lab strain NL4-3 was 0.032 nM.
